Four molecules from patent US20240343803A1 (SHANDONG SIMCERE BIOPHARMACEUTICAL, published 2024) can be followed below.

Assay [1] deals with T1, human PVRIG-mFc protein (Acro, PVG-H5253) (human, UniProt Q6DKI7 41-171, limits assumed).
T1 construct: bought reagent; also called PVRIG-ECD-mFc
T1 sequence (looked up): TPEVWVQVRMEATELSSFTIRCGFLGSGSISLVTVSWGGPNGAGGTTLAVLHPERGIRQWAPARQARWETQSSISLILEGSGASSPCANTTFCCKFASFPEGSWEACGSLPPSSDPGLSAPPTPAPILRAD
Description: competition FACS; blocked: human PVRIG-mFc binding to CHO-K1-CD112 cells. On the procedure:
After incubation, the cells were added with staining buffer (2% FBS+PBS) to stop staining, centrifuged at 350×g to remove the supernatant, washed twice and resuspended with staining buffer to a density of 1×10⁶ cells/mL. The cells were plated into a 96-well plate (50 μL of cell suspension per well) for further use. A working solution of human PVRIG-mFc protein (Acro, PVG-H5253) prepared with staining buffer, 1 μg/mL (four-fold concentration), was added into a 96-well plate (50 μL PVRIG-mFc working solution per well). […] The diluted antibodies were added to the well containing 50 μL of PVRIG-mFc. The plate was placed on a microplate shaker at 400 rpm for 1 minute to fully mix the antibodies and PVRIG-mFc proteins, and then incubated at 4° C. for 30 minutes. After the incubation, the cell suspension prepared above (100 μL) was added into the wells, gently mixed with the pipette tip and incubated at 4° C. for 30 minutes. After the incubation, the cells were washed twice with staining buffer (200 μL per well) and centrifuged at 350×g for 5 minutes to discard the supernatant. The PE goat anti-mouse IgG Fc antibody (Biolegend, 405337) was diluted 250 times with staining buffer, added into the washed wells (100 μL per well), mixed well, and stained at 4° C. for 30 minutes. After staining, the cells were washed twice with staining buffer, finally resuspended with 200 μL staining buffer and analyzed by flow cytometry (BD, Canto II). The weaker the fluorescence signal, the stronger the ability of the antibodies blocks the binding of CHO-K1 human CD112 cells to the PVRIG-mFc protein. An antibody binding curve was drawn with concentration of antibodies as the abscissa and the corresponding Mean Fluorescence Intensity (MFI) as the ordinate. The IC50 value of the antibodies and the AUC value of the binding curve were calculated by using a Four Parameter Logistic Fit (GraphPadPrism9). The smaller the IC50 value and AUC value, the stronger the ability of the antibodies competes with CHO-K1-CD112 cells to bind to human PVRIG-mFc protein.

For assay [2], the target named is T2, human PVRIG-his (AcroBiosystems, Cat NO. PVG-H52H4) (human, UniProt Q6DKI7 41-171, limits assumed).
T2 construct: treated as the same protein; also called human PVRIG-His protein; Human PVRIG-His, Acro C227P1-9ARF1-T4
T2 sequence (looked up): T1 sequence (looked up)
Description: competition ELISA on coated human PVRIG-his; blocked ligand human PVRL2-mFc. As to the method:
The ELISA plate was pre-coated with 100 μL/well of 0.5 μg/mL human PVRIG-his protein (AcroBiosystems, Cat NO. PVG-H52H4). The tested anti-PVRIG antibodies were diluted from the highest concentration of 16 nM (two-fold concentration). The diluted antibodies were mixed with 18 ng/ml human PVRL2-mFc (AcroBiosystems, Cat NO. CD2-H5257) in equal volume, added into the plate (100 μL/well), and incubated with shaking at room temperature for 2.0 hours. […] A HRP substrate, TMB (Thermo, Cat NO. 34029) was added into wells after washing the plate again for color development. After adding a termination solution to terminate the reaction, the absorbance value was read by a microplate reader (MD i3×). An inhibiting curve was drawn with concentration of antibodies as the abscissa and the corresponding OD value as the ordinate. The IC50 value was calculated by using a Four Parameter Logistic Fit (GraphPadPrism9). The smaller the IC50 value, the stronger the ability of the antibodies inhibits the binding between PVRIG and PVRL2. The positive and negative controls are the same as in Example 8.
For orientation: In an ELISA, binding on a coated surface is turned into a signal by an enzyme label.

B1: PVRIG-A75 (VHH)
VHH: QLQLVESGGGLVQSGGSLRLSCAASGRTRSMYVMGWFRQAPGKEREFVGRIKWSGDTTYTSYADFVKGRFTLYGNQARNTVYLQMNSLKPEDTAVYSCAASKFPVSGVPEHYDYWGQGTQVTVSS
notes: tested as VHH-hinge-CH2-CH3 (human IgG1-Fc); not shown: human IgG1 hinge-CH2-CH3
Take B1: the “IC50 (read off the curve)” value is ~0.8 nM in assay [1] and ~1 nM in assay [2].

B2: PVRIG-A43 (VHH)
VHH: QVQLVESGGGLVQSGGSLRLSCAASGRTRSMYVMGWFRQAPGKEREFVGRIKWSGDTTYTSYADFVKGRFTLYGNQARNTVYLQMNSLKVEDTAVYYCAGRVVPLPSRQRDRYDYWGQGTQVTVSS
notes: as for B1
Regarding B2, the “IC50 (read off the curve)” value in assay [1] and in assay [2] was ~1 nM each time.

B3: PVRIG-A104 (VHH)
VHH: EVQVVESGGGLVQAGGSLRLSCAASGRTRSMYVMGWFRQAPGKEREFVGRIKWSGDTTYTSYADFVKGRFTLYGNQARNTVYLQMNSLKPEDTAVYYCYRRSWTNTKLYWGKGIQVTVSS
notes: as for B1
As for B3, the “IC50 (read off the curve)” value in assay [1] and in assay [2] was ~1 nM each time.

B4: PVRIG-A35 (VHH)
VHH: EVQVVESGGGLVQSGGSLRLSCAASGRTRSMYVMGWFRQAPGKEREFVGRIKWSGDTTYTSYADFVKGRFTLYGNQARNTVYLQMNSLKPEDTAVYYCNGRSRFNVINAWGTGTLVTVAS
notes: as for B1
For the molecule B4, the “IC50 (read off the curve)” value in assay [1] and in assay [2] was ~1 nM each time.
